Reference: the supplement of paper PMC10126150
± gives the standard deviation of the averaged measurements.

Tested on: ATP
Assay: switch fluorescence ratio, 500 uM ATP over buffer (Cy3 cluster intensity, sum of 5 cycles each) (fold (ratio)); higher = stronger signal-on switching upon ATP binding; sequences stand for … in TCGTCGGCAGCGTCAGATGTGTATAAGAGACAGTTTTTTTTTTTTTTTTTTTTTTTTT…TC
Settings: aptamer strand: ATP DNA aptamer (quencher-CACCTGGGGGAGTATTGCGGAGGAAGG + anchor), 100 nM annealed; ATP concentration: 500 uM
Method in brief: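 Five buffer/ATP imaging cycles were run on Cy3-labelled switching-strand clusters on a modified Illumina MiSeq flow-cell, with NaOH stripping and re-annealing between cycles. In each cycle, clusters annealed to 100 nM quencher-labelled ATP aptamer were imaged in selection buffer, then after 15 min with 500 uM ATP at 22 °C. Per cluster, the fluorescence ratio is summed target-cycle over summed buffer-cycle Cy3 intensity, averaged per switch-domain sequence. Only clusters within 100-1000 RFU were kept.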
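Further: ATP exposure 15 min at 22 °C before imaging.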

Sequence | switch fluorescence ratio
GACGATGCGG | 1.196 ± 0.0058
ATCCTATTGT | 1.03 ± 0.036
TTTAAATCTT | 1.06 ± 0.022
CATATATTGG | 1.02 ± 0.05
GTTTTGTTGA | 1.02 ± 0.021
GGTTTCCATT | 1 ± 0.054
CGTTTAGGTG | 1.02 ± 0.038
GCCGTACTCT | 1.1 ± 0.1
AAGGGAATAA | 1.11 ± 0.11
TTGGTAATCC | 1.011 ± 0.0026
TTCAAAACGC | 1.03 ± 0.054
CAATACGGGG | 1.13 ± 0.085
GGGGGTGACG | 0.995 ± 0.11
ACAGGGTTGT | 0.979 ± 0.013
GGACCATGAC | 1.14 ± 0.0075
ACACAGTAGT | 1.03 ± 0.011
AATACCTTTC | 2.3 ± 0.14
GGAATGTGCG | 0.9794 ± 0.0042
TGGGTGCCGT | 1.04 ± 0.034
CCCCTTGCTC | 1.47 ± 0.058
CGTACGTGCA | 1.02 ± 0.032
CTCGGGTGGT | 0.997 ± 0.061
TTTACCTGGG | 1.01 ± 0.032
ATTACGACTG | 1.06 ± 0.031
GGGCCGGGGG | 1 ± 0.022

Sequence | switch fluorescence ratio
TTCAATGTAG | 1 ± 0.029
ACGTTGCAGA | 1.006 ± 0.006
TGGGACACTG | 0.972 ± 0.035
TGGTAGTTCG | 1.01 ± 0.046
TATCTATGGG | 0.983 ± 0.047
ATAAATGAGG | 1.01 ± 0.014
AAGAGGGTTT | 1.01 ± 0.05
TATTTGGTGG | 1.02 ± 0.027
TAATGAAGCG | 0.993 ± 0.018
TTTCGAGTGC | 0.97892 ± 0.00082
GAATGGCTGC | 1.04 ± 0.0048
GTTGCAGGAA | 0.992 ± 0.04
TAATTAGCGG | 1.01 ± 0.018
ATTAAAACGG | 1.07 ± 0.098
GTGATTGGGA | 0.963 ± 0.058
CTTAGGGGGA | 1 ± 0.012
GGGATAAAGG | 0.993 ± 0.035
TTAGGGTCAG | 0.997 ± 0.035
GAGTGAAATG | 1.02 ± 0.023
GGCGCATGTC | 1.14 ± 0.029
ATGATTTAAC | 0.976 ± 0.035
GATAAGTATG | 0.975 ± 0.015
TGCAAGTTCG | 0.9694 ± 0.0095
TTCGTACAGC | 1.04 ± 0.036
ATTCGGCGGA | 1.03 ± 0.068

Sequence | switch fluorescence ratio
TGTGGAAAAA | 1.011 ± 0.0081
GGAATTGGGC | 1.03 ± 0.022
ATTTTACACC | 1.07 ± 0.013
GGAGATTGCA | 1.058 ± 0.0089
AGTACGCAAG | 1.12 ± 0.039
AGGGATTTTT | 0.999 ± 0.011
TATCGAAATT | 0.981 ± 0.021
TCTTCCGGTT | 1.233 ± 0.0018
TTTGCGGTGG | 1.01 ± 0.075
TTGTTATGTT | 0.971 ± 0.03
TATGAGATTT | 0.955 ± 0.026
CTTTATGGGG | 0.974 ± 0.029
CATGGTTTTT | 0.9989 ± 0.0082
GCTACCTTTG | 1.01 ± 0.014
ACGATGATGT | 1.0279 ± 0.00059
AGACGCGGTG | 1.044 ± 0.0038
ATTGGAACGC | 1.03 ± 0.012
AGACGGGGTC | 0.9848 ± 0.0021
TTATGAAAGG | 0.968 ± 0.03
GGTTGAACCG | 1.01 ± 0.06
GGGGGGAAAC | 1 ± 0.022
CCAATGAGGT | 0.9962 ± 0.0084
TTTTATGGGA | 0.9849 ± 0.0032
TTGGTTTACG | 1.02 ± 0.03
TTTATTCTGT | 1 ± 0.022

Sequence | switch fluorescence ratio
TTTGGCACAC | 1.046 ± 0.0048
TAATTTGAAA | 1.03 ± 0.07
CGTCGTGGAG | 1.01 ± 0.036
TCATGGACTG | 1.06 ± 0.02
CGGGTTGCCC | 1 ± 0.012
AATCAGGCGA | 1.013 ± 0.0032
TACCATGAAT | 1.01 ± 0.045
GTGTTATGGG | 0.978 ± 0.037
GTATGCAGGG | 0.989 ± 0.035
GGTAACCGGG | 1.019 ± 0.0016
TTGAAATTT | 1.001 ± 0.003
AGGTGCCAGG | 1.07 ± 0.036
TATTTGGTT | 0.991 ± 0.024
GAAGGACAGA | 1 ± 0.018
GATAATAATG | 1.02 ± 0.0061
TTTATTTTTG | 0.992 ± 0.029
TGGACGGGGA | 1.03 ± 0.031
ACCGTGTCGT | 0.989 ± 0.095
TTTGGCGGAA | 1.04 ± 0.011
ATTTTCAGGG | 0.998 ± 0.067
CCGAGAAAAA | 1.12 ± 0.14
GTTTCTTCGA | 0.973 ± 0.013
AGGGGAGTGG | 0.992 ± 0.038
GTTTGGGGGT | 1.04 ± 0.12
GTTATTAATT | 0.983 ± 0.0036
